The target in series [1] is T1, ToxN (ToxNEc) (Escherichia coli strain 680, UniProt PDB:7D8O_1 1-187). Briefly: ITC; one-site fit; ITC: 50 mM KH2PO4 pH 7, 100 mM KCl, 15°C; 2-5 uM RNA in cell, 35-50 uM ToxN in syringe. The following applies: protein: recombinant, tags: N-terminal His6 (pCold II).
For series [2], the target named is T1, ToxN (ToxNEc). Briefly: ITC; no appreciable heat change; ITC: 50 mM KH2PO4 pH 7, 100 mM KCl, 15°C; 2-5 uM RNA in cell, 35-50 uM ToxN in syringe. Conditions: protein: recombinant; tags: N-terminal His6 (pCold II); pseudoknot.

B1: Δ5'-ToxI (structured_RNA)
RNA: GGAGGUGAUUUGCUACCUUUAAGUGCAGCUAGAA
In the case of B1, the Kd in the series with ToxN (ToxNEc) [1] (pseudoknot with 3' single-stranded overhang) amounted to 47.3 ± 7.4 nM.

B2: Δ3'-ToxI (structured_RNA)
RNA: GGAUUCAGGUGAUUUGCUACCUUUAAGUGCA
Turning to B2, the Kd in the series with ToxN (ToxNEc) [1] (pseudoknot with 5' single-stranded overhang) was found to be 243 ± 55 nM.

B3: 27mer (core pseudoknot) (structured_RNA)
RNA: GGAGGUGAUUUGCUACCUUUAAGUGCA
Take B3: the binding result in the series with ToxN (ToxNEc) [2] is reported as “no binding”.

The values are drawn from paper PMC8860590, “Identification, functional characterization, assembly and structure of ToxIN type III toxin–antitoxin complex from E. coli”.
